In this assay the target is N-terminal domain of the HIV-1 capsid protein (HIV-1) (UniProt P12493). The assay can be described thus: ITC.

pKd: −log10 of the molar value.

Broadly, the pKd is −log10 of the Kd, conventionally taken in molar units. A word on the stoichiometry N: it is a count of units in the complex or per binding partner. As for “calcium-saturated human calmodulin ((Ca^2+)4-CaM) (from UniProt P0DP23 1-149) (natural protein)”, the negative-log Kd (pKd) is 5.43 and the stoichiometry N came out at 1.
